This is an account of results in publication PMC8907193, “The YΦ motif defines the structure-activity relationships of human 20S proteasome activators” (Nature Communications, 2022).

The target in experiment [1] is human 20S proteasome (human) (UniProt P60900).
For experiment [2], the target named is biotinylated human 20S proteasome (human) (UniProt P60900). As to the kind of experiment: BLI. On the technique in general: BLI is a label-free optical method that tracks binding on a fibre tip over time.

Read-outs that look alike come from different tables or passages of the source. A value given as a limit tells only on which side of the number the result lay.

The substance PA26^AY yielded an EC50 of stimulation of h20S activity in experiment [1] of 0.0083 µM.

As to PA26^AY (from UniProt Q9U8G2), in experiment [2], the Kd (as a rule, the equilibrium constant for the complex coming apart) worked out at 0.00028 µM and the koff (in general, the first-order rate constant of dissociation) worked out at 0.0004 s⁻¹.

For “PA26^E102A (disabled-loop mutant) (from UniProt Q9U8G2)”, the Kd in experiment [2] (natural protein) is more than 0.1 µM.

In experiment [2], PA26^YA (from UniProt Q9U8G2) returned a Kd of 0.036 µM and a koff of 0.011 s⁻¹.

In experiment [1], PA26^YA registered an EC50 of stimulation of h20S activity of more than 3 µM and a stimulation of h20S activity, loss against PA26^YY of 80 % reduction.
